From PMC4789767, “Application of linker technique to trap transiently interacting protein complexes for structural studies” (Journal of Biological Methods, 2016)

Biological target: T1, Calmodulin (CaM), wild type, full length (UniProt P0DP26 1-149)
T1 construct: Used without calcium (buffer with 2 mM EGTA); also called WT CaM; apo-CaM; source: purified, as described previously [19]
Assay: ITC; VP-ITC; 150 µM CaM (WT or mutant) in the syringe, 10 µM full-length Nm/Ng (WT or mutant) in the cell; Buffer A (20 mM imidazole pH 8.0, 100 mM NaCl, 2 mM EGTA); 25°C; 30 injections of 10 µl
Details: both partners purified

B1: Neuromodulin (Nm), wild type, full length (natural protein)
chain: MLCCMRRTKQVEKNDEDQKIEQDGVKPEDKAHKAATKIQASFRGHITRKKLKGEKKGDAPAAEAEAKEKDDAPVADGVEKKEGDGSATTDAAPATSPKAEEPSKAGDAPSEEKKGEGDAAPSEEKAGSAETESAAKATTDNSPSSKAEDGPAKEEPKQADVPAAVTDAAATTPAAEDAATKAAQPPTETAESSQAEEEKDAVDEAKPKESARQDEGKEDPEADQEHA
notes: also called WT Nm; source: purified, as described previously [19]
binding result: binds
